# Laboratory results reported in patent US20050059087A1, “Antibodies directed to the deletion mutants of epidermal growth factor receptor and uses thereof” (priority 2003, published 2005).
# How the values were obtained:
# [1] = target: T1, EGFrVIII peptide sequence (residues 1-20) (Homo sapiens, UniProt P00533, DELINS30-297G); assay: Epitope mapping by SPOTs peptide array and Alanine scanning; format: binding; conditions: SEQ ID 94/98 = EEKKGNYVVT; 95 = LEEKKGNYVVTD; 96 = YVVTDH; 97 = YVVTD; 99 = GNYVVT
# T1 construct: purchased Sigma-Genosys (custom SPOTs array)
# Text: The approach that was used was a custom SPOTs peptide array (Sigma Genosys) to study the molecular interaction of the human anti-EGFrVIII antibodies with their peptide epitope. SPOTs technology is based on the solid-phase synthesis of peptides in a format suitable for the systematic analysis of antibody epitopes. Synthesis of custom arrayed oligopeptides is commerically available from Sigma-Genosys. A peptide array of overlapping oligopeptides derived from the amino-acid sequence of the EGFr VIII variant was ordered from Sigma-Genosys.
# A series of nine 12-mer peptides were synthesized as spots on polypropylene membrane sheets. The peptide array spanned residues 1-20 of the EGFrVIII sequence, representing the deletion of amino acids 6-273 in the extracellular domain of wtEGFr, and the generation of a glycine (G) residue at the junction point. Each consecutive peptide was offset by 1 residue from the previous one, yielding a nested, overlapping library of arrayed oligopeptides. The membrane carrying the 9 peptides was reacted with 9 different anti EGFrVIII antibodies (1 μg/ml). The binding of the mAbs to the membrane-bound peptides was assessed by an enzyme-linked immunosorbent assay using HRP-conjugated secondary antibody followed by enhanced chemiluminescence (ECL).
# In addition, functional epitopes were mapped by combinatorial Alanine scanning. In this process, a combinatorial Alanine-scanning strategy was used to identify amino acids in the EGFrVIII peptide necessary for interaction with anti-EGFRvIII mAbs. To accomplish this, a second set of SPOTs arrays was ordered for Alanine scanning. A panel of variants peptides with alanine substitutions in each of the 12 residues was scanned as above. Spot #1, the unmutated sequence, is a positive control for antibody binding.
# [2] = target: T2, H1477 (H80-EGFRvIII) cells (Homo sapiens, UniProt P00533, DELINS30-297G); assay: FACS staining of H1477 (H80-EGFRvIII) cells; format: cell-based
# T2 construct: host or cells: H1477 (H80 human glioblastoma line transfected with EGFRvIII)
# Experimental: (§1) The specificity of the purified antibodies was ascertained by performing FACS analysis on a panel of cell lines. H80, a human glioblastoma line, and H1477 (H80-EGFRvIII) that expresses high levels of EGFRvIII, A431, a human epidemoid carcinoma line, and A549, a human lung carcinoma cell line were used as the cell lines. All cell lines were from Dr. Bigner except A431 and A549, which were from ATCC (Rockville, Md., U.S.A.). Cells were incubated on ice with 10 μg/ml of the respective antibody for 30 min., washed in FACS buffer and subsequently incubated with PE-conjugated goat anti-human IgG from Jackson ImmunoResearch (West Grove, Pa., U.S.A.). In FIGS. 9A-9L and 10A-10D, the darkened histogram indicates cells stained with an irrelevant IgG, the outlined, or white histogram, represents the staining of the relevant antibodies.
# [3] = target: T3, A431 cells (wild type EGFR) (Homo sapiens, UniProt P00533); assay: FACS staining of A431 cells; format: cell-based
# T3 construct: host or cells: A431
# Experimental: as §1
# [4] = target: T4, A549 cells (wild type EGFR) (Homo sapiens, UniProt P00533); assay: FACS staining of A549 cells; format: cell-based
# T4 construct: host or cells: A549
# Experimental: as §1
# Pep-3 (EGFRvIII epitope) = target: T5, Pep-3 (EGFRvIII epitope) (Homo sapiens, UniProt P00533, DELINS30-297G); assay: Biacore (surface plasmon resonance) binding kinetics to Pep-3; conditions: for Ka / dissociation rate constant (kd, koff): parentheses 95% confidence interval
# T5 construct: purchased Anatech, Inc. (San Jose, Calif.); host or cells: custom synthesis
# Experimental: All antigen and mAb samples for Biacore and KinExA analysis were prepared in vacuum-degassed HBS-P buffer (0.01 M HEPES, 0.15 M NaCl, 0.005% surfactant P-20, Biacore Inc., Uppsala, Sweden) containing 100 μg/mL BSA. […] Research grade CM5 biosensor chips were purchased from Biacore, Inc.
# Standard EDC/NHS and carbohydrate coupling was used to covalently immobilize mAbs to a CM5 sensor chip. To minimize mass transport and crowding mAbs were immobilized at levels that gave a maximum antigen binding response (Rmax) of no more than 50-100 RU. A reference flow cell on each chip was activated and blocked with no mAb immobilization to serve as a control.
# All Biacore kinetic experiments were conducted at 23° C. […] Antigen samples were randomly injected over the biosensor surface in triplicate at 100 μL/min. Several buffer blanks were injected intermittently over the course of an experiment for double referencing. Each pep-3 concentration and blank were injected for 90 seconds. Dissociation was followed for 13 to 180 minutes.
# All Biacore sensorgrams were processed using Scrubber software (Version 1.1f, BioLogic Software, Australia). Sensorgrams were first zeroed on the y-axis and then x-aligned at the beginning of the injection. Bulk refractive index changes were removed by subtracting the reference flow cell responses. The average response of all blank injections was subtracted from all analyte and blank sensorgrams to remove systematic artifacts between the experimental and reference flow cells. CLAMP biosensor data analysis software (Version 3.40, BioLogic Software, Australia) was used to determine ka and kd from the processed data sets. Data from all flow cells were globally fit to a 1:1 bimolecular binding model that included a mass transport term. […] The KD was calculated from the quotient kd/ka.
# Two CM5 sensor chips were used in total to immobilize both mAbs. […] Biacore 2000 optical biosensors were used for all studies.
# Next, pep-3 was flowed across the mAb immobilized biosensor surfaces. The starting concentration of pep-3 was 1.25 μM, which was followed with eight two-fold serial dilutions in randomized triplicate injections. Blank injections were run every sixth sample throughout the injection series for double referencing purposes.
# Finally, the biosensor data was processed with Scrubber and the data was fit to curves utilizing Clamp with a 1:1 interaction model with a term included for mass transport. […]
# [5] = target: T6, EGFRvIII receptor on NR6 M cells (Homo sapiens, UniProt P00533, DELINS30-297G); assay: Internalization assay of B-cell culture supernatants (FMAT, glutathione); format: cell-based
# T6 construct: expressed in transfected cells; host or cells: NR6 murine fibroblasts (NR6 M)
# Experimental: The top 60 native binding B cell culture supernatants were further assayed for their ability to internalize the receptor. NR6 M cells were seeded at 8000 cells/well into 96 well FMAT plates and incubated overnight. Media was removed and 10-15 μl B-Cell culture supernatant in a total volume of 30 μl media, in duplicate was added. Next, 15 μl of secondary antibody (SS Alexa 647 anti-human IgG Fab at 1.5 μg/ml final concentration) was added and the mixture was incubated on ice for 1 hr. An irrelevant B-Cell Culture supernatant was used to see the effect of the culture media. Human anti-EGFRvIII mAb 13.2.1 was used as a positive control starting at 1 μg/ml (final concentration) and negative control was PK 16.3.1 (human anti-KLH IgG2 antibody) at the same concentration. After incubation, the cells were washed with cold PBS, 50 μl media was added to all of the wells, one of the duplicates were incubated at 37° C. for 30 mins while the other duplicate remained on ice. After the incubations media was removed, 100 ul of cold 50 mM glutathione was added to the set incubated at 37° C. and 100 μl of cold media added to the other set, both sets were then left on ice for 1 hr. The cells were then washed with 100 μl cold PBS and then fixed with 1% paraformaldehyde and read in FMAT. The results were expressed as % intermalized, calculated as total fluorescence in the presence of glutathione/total fluorescence in the absence of glutathione X 100.
# [6] = target: T7, EGFRvIII rabbit Fc fusion protein (Homo sapiens, UniProt P00533, DELINS30-297G); assay: Western blot, purified EGFRvIII rabbit Fc fusion protein, reducing / non-reducing; format: binding; conditions: native and reduced
# T7 construct: fragment encoding the extracellular domain of EGFRvIII was generated; made in house; host or cells: 293F cells
# Experimental: (§2) Specifcially, a subset of the antibodies were tested for their binding of to lysates of tumor cell lines in Western plates of polyacrylamide gel electrophoresis under either non-reducing or reducing conditions. Purifed recombinant protein is also included. […] Sample identifications: • EGFRvIII—the rabbit Fc fusion protein • H1477—H80 human tumor cell line transfected with EGFRvIII expression contruct. These cells express both EGFR and EGFRvIII. • EGFR—purified wild-type EGFR protein • A431—human tumor cell line expressing only wild-type EGFR • A549—human tumor cell line expressing only wild-type EGFR • H80—human tumor cell line expressing only wild-type EGFR
# [7] = target: purified wild-type EGFR protein (Homo sapiens, UniProt P00533); assay: Western blot, purified wild-type EGFR protein; format: binding
# Experimental: as §2
# [8] = target: T8, A431 lysate (wild-type EGFR) (Homo sapiens, UniProt P00533); assay: Western blot, A431 lysate; format: binding
# T8 construct: host or cells: A431
# Experimental: as §2
molecule,measurement,setting,value
"139: XenoMax derived human anti-EGFRvIII IgG1, from well 182A5 (antibody, V domains shown) VH: EVQVLESGGGLVQPGGSLRLSCAASGFTFSSYAMSWVRQAPGKGLEWVSAISGSGGSTNYADSVKGRFTISRDNSKNTLYLQMNSLRAEDTAVYYCAGSSGWSEYWGQGTLVTVSS VL: DIQMTQSPSSLSASVGDRVTITCRASQGIRNNLAWYQQKPGKAPKRLIYAASNLQSGVPSRFTGSGSGTEFTLIVSSLQPEDFATYYCLQHHSYPLTSGGGTKVEIK",Epitope mapped by SPOTs,[1],(SEQ ID NO: 95)
same,Binding to the EGFRvIII protein on the transfected cell lines,[2]; 10 μg/ml,bind
same,Selectivity for EGFRvIII expressing cells (H1477) as compared to ABX-EGF,"[2]; FIGS. 9A-9L, 10A-10D",superior selectivity
same,Binding / staining of A431 cells in FACS,[3],stained
same,Binding / staining of A549 cells in FACS,[4],stained
same,kd,Pep-3 (EGFRvIII epitope); curve fitting,2.981*10^−3
same,Ka,Pep-3 (EGFRvIII epitope),10300 M⁻¹ s⁻¹
same,"dissociation rate constant (kd, koff)",Pep-3 (EGFRvIII epitope),0.00298 s⁻¹
"250: XenoMax derived human anti-EGFRvIII antibody, from well 138D2 (antibody, V domains shown) VH: EGQLLESGGGWVQPGESLRLSCAASGFTFSSYAMSWVRQAPGKGLEWVSAISGSGGSTNYADSVKGRFTISRDNSKNTLYLQVNSLRVEDTAVYYCAGSSGWSEYWGQGTLVTVSS VL: DIQMTQSPSSLSASVGDSVTITCRTSQGIRKNLGWYQQKPGKAPKRLIYAASSLQSGVPSRFSGSGSGTEFTLTISRLQPEDFATYYCLQHHSYPLTFGGGTRVEIR",Epitope mapped by SPOTs,[1],(SEQ ID NO: 95)
"125 D10: B-cell culture supernatant well (antibody, V domains shown) VH: QVQLQQSGPGLVKPSQTLSLTCAISGDSVSSNNAAWNWIRQSPARGLEWLGRTYYRSKWYNDYVVSVKSRITINPDTSKNQFSLQLNSVTPEDTAVYYCVRATAFDYWGQGTLVTVSS VL: AIVLTQTPLSSPVTLGQPASISCRSSQSLVHRDGNTYLSWLQQRPGQPPRLLIYKISNRFSGVPDRFSGSGAGTDFTLKISRVEPDDVGVYYCMHTTQLPWTFGQGTKVEIK",With glutathione FL1 × count,"[5]; 37° C. for 30 mins, then 50 mM glutathione",1236
same,"% internalized, (glut+/glut−) × 100","[5]; NR6 M cells, 37° C. 30 mins",52.8%
same,No glutathione FL1 × count,"[5]; set kept on ice, no glutathione",2342
"095: XenoMax derived human anti-EGFRvIII antibody (antibody, V domains shown) VH: QVQLQESGPFLVKPSQTLSLTCTVSGGSISSGGYYWSWIRQHPGKGLEWIGFIYYRGNTYYNPSLKSRVTISVDTSKNQFSLKLSSVTAADTAVYYCARDGYCSRTGCYGGWFDPWGQGTLVTVSP VL: DIVMTQTPLSSPVTLGQPASISCRSSQSLIHTDGNIYLSWLQQRPGQPPRLLIYKISNRFSGVPDRFSGSGAGTDFTLKISRVEAEDVGVYYCMQGTQFPITFGQGTRLEIK",Epitope mapped by SPOTs,[1],(SEQ ID NO: 96)
same,ka,Pep-3 (EGFRvIII epitope); curve fitting,1.491*10^5
same,kd,Pep-3 (EGFRvIII epitope); curve fitting,9.927*10^−3
same,Ka,Pep-3 (EGFRvIII epitope),149000 M⁻¹ s⁻¹
same,"dissociation rate constant (kd, koff)",Pep-3 (EGFRvIII epitope),0.0099 s⁻¹
"211: XenoMax derived human anti-EGFRvIII antibody, from well 190D7 (antibody, V domains shown) VH: QVQLVESGGGVVQPGRSLRLSCVASGFTLSSYGMHWVRQAPGKGLEWVAVTSYDGSKKDYADSAKGRFTISRDNSKNTLYLQMNSLRAEDTAVYYCVSEGYCSSSSCYKYYYYGMDVWGQGTTVTVSS VL: DIVMTQSPLSLPVTPGEPASISCRSSQSLLYRNGNNYLDWYLQRPGQSPQLLIYLGSNRASGVPDRFSGSGSGTDFTLKISRVEAEDVGVYYCMQALQTPRTFGQGTKVEIK",Epitope mapped by SPOTs,[1],(SEQ ID NO: 97)
same,Binding to purified EGFRvIII in Western blots,[6],binds to both native and reduced
same,Binding to purified wildtype EGFr in Western blots,[7],cross reacted
same,"Binding in Western blot of A431 lysate, reduced sample",[8],no signal
same,Binding in Western blot of lysate of A431 cells,[8],cross reacted
same,"Binding in Western blot of A431 lysate, non-reduced sample",[8]; band of the size of wild-type EGFR,binds strongly
